In assay [1] the target is Pak1 (UniProt Q13153). Briefly: competitive phage ELISA: biotinylated Pak1 immobilised, varying non-biotinylated Pak1 mixed with phage displaying D3. Background: In an ELISA, binding on a coated surface is turned into a signal by an enzyme label.
The target in assay [2] is Pak1 (UniProt Q13153). In words: competitive phage ELISA IC50 compared with KD (~IC50) of primary-screen monobodies.

This note sets out measurements from patent US20190055547A1.

By IC50 is commonly meant the concentration that gives 50% inhibition. Read a high IC50 as lower potency.

B1: Clone D3 (designed binder, not shown: large carriers; small tags and cut ends)
chain: EQKLISEEDLMAVSDVPRKLEVVAATPTSLLISWDAPWKKTRYYRITYGETGGNSPVQEFTVPGSKSTATISGLKPGVDYTITVYAVTASWPWSKPISINYRTSGGGGSGGGGSGGGGSGGGGSGGGGSDYKDDDDKLASAMAVSDVPRKLEVVAATPTSLLISWDAPSRHIYYYRITYGETGGNSPVQEFTVPGSKSTATISGLKPGVDYTITVYAVTDLYSNSKPISINYRTS
Take B1: the IC50 with Pak1 [1] was 1.5 nM. In the assay with Pak1 [2], the fold improvement over the binding of the monobodies from the primary screen is 1000 fold.
